Reference: publication PMC3431356, “Staphylococcus aureus Methicillin-Resistance Factor fmtA Is Regulated by the Global Regulator SarA” (PLoS ONE, 2012)

Target: the molecule itself
Assay: SEC; Superdex 75 (10/300) column, 50 mM sodium phosphate pH 7.0, 0.4 mL/min, calibrated with four standards (LMW calibration kit); mass estimated from elution

B1: staphylococcal accessory regulator A (SarA) (natural protein)
chain: MAITKINDCFELLSMVTYADKLKSLIKKEFSISFEEFAVLTYISENKEKEYYLKDIINHLNYKQPQVVKAVKILSQEDYFDKKRNEHDERTVLILVNAQQRKKIESLLSRVNKRITEANNEIEL
notes: SarA, Staphylococcus aureus strain MRSA252; the 375 bp sarA coding region cloned in pET22b with the pelB leader removed; a 124-residue protein; the entry of strain MRSA252 is not recalled; No tag is described; The reverse primer appears to carry stop codons before the HindIII site, so the His tag of pET22b is probably not on the protein (surmise); Observed mass 14,635 D, theoretical mass 14,586 …
  stoichiometry N: 2
